B1: E. coli PNPase core, lacking S1 and KH domains (domain or fragment, UniProt P05055 1-552, looked up)
chain: MLNPIVRKFQYGQHTVTLETGMMARQATAAVMVSMDDTAVFVTVVGQKKAKPGQDFFPLTVNYQERTYAAGRIPGSFFRREGRPSEGETLIARLIDRPIRPLFPEGFVNEVQVIATVVSVNPQVNPDIVAMIGASAALSLSGIPFNGPIGAARVGYINDQYVLNPTQDELKESKLDLVVAGTEAAVLMVESEAQLLSEDQMLGAVVFGHEQQQVVIQNINELVKEAGKPRWDWQPEPVNEALNARVAALAEARLSDAYRITDKQERYAQVDVIKSETIATLLAEDETLDENELGEILHAIEKNVVRSRVLAGEPRIDGREKDMIRGLDVRTGVLPRTHGSALFTRGETQALVTATLGTARDAQVLDELMGERTDTFLFHYNFPPYSVGETGMVGSPKRREIGHGRLAKRGVLAVMPDMDKFPYTVRVVSEITESNGSSSMASVCGASLALMDAGVPIKAAVAGIAMGLVKEGDNYVVLSDILGDEDHLGDMDFKVAGSRDGISALQMDIKIEGITKEIMQVALNQAKGARLHILGVMEQAINAPRGDISEFA
notes: polynucleotide phosphorylase (PNPase), E. coli, core aa 1-552 by the methods (1-550 in the results), without the KH and S1 domains; The results and a legend give 1-550 for the core, the methods 1-552; source: E. coli Evo21(DE3), purified (Ni-NTA, intein cleavage, butyl, Q, SEC); not shown: Mycobacterium xenopi GyrA intein, C-terminal, cleaved; His8, C-terminal, cleaved
B2: E. coli PNPase (enzyme, UniProt P05055 1-711, looked up)
chain: MLNPIVRKFQYGQHTVTLETGMMARQATAAVMVSMDDTAVFVTVVGQKKAKPGQDFFPLTVNYQERTYAAGRIPGSFFRREGRPSEGETLIARLIDRPIRPLFPEGFVNEVQVIATVVSVNPQVNPDIVAMIGASAALSLSGIPFNGPIGAARVGYINDQYVLNPTQDELKESKLDLVVAGTEAAVLMVESEAQLLSEDQMLGAVVFGHEQQQVVIQNINELVKEAGKPRWDWQPEPVNEALNARVAALAEARLSDAYRITDKQERYAQVDVIKSETIATLLAEDETLDENELGEILHAIEKNVVRSRVLAGEPRIDGREKDMIRGLDVRTGVLPRTHGSALFTRGETQALVTATLGTARDAQVLDELMGERTDTFLFHYNFPPYSVGETGMVGSPKRREIGHGRLAKRGVLAVMPDMDKFPYTVRVVSEITESNGSSSMASVCGASLALMDAGVPIKAAVAGIAMGLVKEGDNYVVLSDILGDEDHLGDMDFKVAGSRDGISALQMDIKIEGITKEIMQVALNQAKGARLHILGVMEQAINAPRGDISEFAPRIHTIKINPDKIKDVIGKGGSVIRALTEETGTTIEIEDDGTVKIAATDGEKAKHAIRRIEEITAEIEVGRVYTGKVTRIVDFGAFVAIGGGKEGLVHISQIADKRVEKVTDYLQMGQEVPVKVLEVDRQGRIRLSIKEATEQSQPAAAPEAPAAEQGE
notes: polynucleotide phosphorylase (PNPase), E. coli; also called polynucleotide phosphorylase; full-length PNPase; source: E. coli BL21(DE3), purified (ammonium sulfate, Q, butyl-Sepharose, SEC)
B3: RNase E 511-1061 (domain or fragment, E. coli, UniProt P21513 511-1061, looked up)
chain: ALPSEEEFAERKRPEQPALATFAMPDVPPAPTPAEPAAPVVAPAPKAAPATPAAPAQPGLLSRFFGALKALFSGGEETKPTEQPAPKAEAKPERQQDRRKPRQNNRRDRNERRDTRSERTEGSDNREENRRNRRQAQQQTAETRESRQQAEVTEKARTADEQQAPRRERSRRRNDDKRQAQQEAKALNVEEQSVQETEQEERVRPVQPRRKQRQLNQKVRYEQSVAEEAVVAPVVEETVAAEPIVQEAPAPRTELVKVPLPVVAQTAPEQQEENNADNRDNGGMPRRSRRSPRHLRVSGQRRRRYRDERYPTQSPMPLTVACASPELASGKVWIRYPIVRPQDVQVEEQREQEEVHVQPMVTEVPVAAAIEPVVSAPVVEEVAGVVEAPVQVAEPQPEVVETTHPEVIAAAVTEQPQVITESDVAVAQEVAEQAEPVVEPQEETADIEEVVETAEVVVAEPEVVAQPAAPVVAEVAAEVETVAAVEPEVTVEHNHATAPMTRAPAPEYVPEAPRHSDWQRPTFAFEGKGAAGGHTATHHASAAPARPQPVE
notes: The construct is described nowhere in the methods

Data set [1] deals with the molecule itself. The data set can be described thus: SEC-MALS; Superdex 200 10/300 Increase, 100 µl at ~1 mg/ml, 25°C; buffer A (50 mM Tris pH 7.5, 100 mM NaCl, 100 mM KCl, 0.01% w/v b-DDM, 1 mM TCEP) or B (A without b-DDM) as Table S2 tells for each sample; the 1:1 ratio is one RNase E segment to one PNPase trimer (expected mass = trimer plus one segment).
Data set [2] is described as follows: SEC-MALLS molar mass of PNPase and PNPase/RNase E complexes. The data set is classed as physicochemical. The protocol:
Estimation of molar masses of PNPase and the various PNPase/RNase E complexes was carried out by size-exclusion chromatography with multi-angle laser light scattering (SEC-MALLS). Proteins (100 μl at ∼1 mg/ml concentration) were loaded onto a Superdex 200 10/300 Increase GL SEC column (GE Healthcare) at 0.5 ml/min using an AKTA Purifier FPLC system ([…]). Chromatograms were acquired using UNICORN software (GE Healthcare) at 280 nm. The eluent from the S200 column was analysed with an online DAWN HELEOS II MALLS instrument with eight detectors (Wyatt Technology), followed by an Optilab T-rEX differential refractometer (Wyatt Technology) at 25°C. Data collection and analysis were performed using ASTRA 6 software (Wyatt Technology). Eluted peaks from SEC column were evaluated by Zimm Plot, using a dn/dc value of 0.1850 ml/g. Bovine serum albumin was used as a standard to confirm the system performance (Supplementary Table S1).

The target of the data set “E. coli PNPase” is B2. The data set is described as follows: SEC-MALS; Superdex 200 10/300 Increase, 100 µl at ~1 mg/ml, 25°C; buffer A (50 mM Tris pH 7.5, 100 mM NaCl, 100 mM KCl, 0.01% w/v b-DDM, 1 mM TCEP) or B (A without b-DDM) as Table S2 tells for each sample; the 1:1 ratio is one RNase E segment to one PNPase trimer (expected mass = trimer plus one segment). Conditions: both partners purified.

The mark [3] stands for this setting: Superdex 200, 25°C, buffer B: A w/o bDDM.

Usually stoichiometry N stands for a count of units in the complex or per binding partner. With B1, the “stoichiometry N” value in data set [1] turned out to be 3.

Take B2: the “stoichiometry N” value in data set [1] worked out at 3.

Consider B3, for which, in data set [2] (setting [3]), the “Mn number-averaged solute molar mass” value is on record as 63,870 Da and the “Mw weight-averaged solute molar mass” value was 64,020 Da. Further, in data set [2] (buffer B, expected: trimer:RNase E 1:1 ratio for complexes), the “Difference Mn from expected mass” value was 4.4%. Moreover, the “stoichiometry N” value with E. coli PNPase was 1.

Source of the values: PMC12489471, “A multi-dentate, cooperative interaction between endo- and exo-ribonucleases within the bacterial RNA degradosome” (Nucleic Acids Research, 2025).
